Here are results for four compounds from paper PMC5010584, “Comparison of Ga-68-Labeled Fusarinine C-Based Multivalent RGD Conjugates and [^68Ga]NODAGA-RGD—In Vivo Imaging Studies in Human Xenograft Tumors” (Molecular Imaging and Biology, 2016).

Where two headings read alike, the source gives them in different places.

Series [1] is described as follows: Distribution coefficient (logD), octanol/PBS. The series is classed as physicochemical. The procedure:
A volume of 500 μl PBS including 0.5 MBq radioligand (approximately 0.5 μg peptide) was combined with 500 μl octanol; the mixture was vortexed for 15 min and centrifuged for 2 min at 2000 rcf. From each phase, an aliquot (50 μl) was pipetted out and measured in a 2480 Wizard2 Automatic Gamma Counter (PerkinElmer, Vienna, Austria). Each measurement was repeated five times. LogD value was calculated as the average log ratio of the radioactivity in the organic fraction and the PBS fraction.

For series [2], the system named is M21 cells (integrin αvβ3 positive). Briefly: Internalization assay in M21 cells. It counts as cell-based, human. The conditions noted are these: 90-min incubation, 37 °C. Here is the method:
One-milliliter aliquots in Eppendorf tubes were incubated at 37 °C for 1 h in triplicates, and [^68Ga]FSC(succ-RGD)3, [^68Ga]FSC(RGDfE)3, or [^68Ga]FSC(Mal-RGD)3 (approximately 1.5 × 10^6 cpm, 1.2 μg peptides) in PBS with 0.5 % BSA (150 μl, total series) or with 10 μM c(RGDyV) in PBS/0.5 % BSA (150 μl, nonspecific series) at 37 °C was added. After 90-min incubation was stopped by centrifugation, the medium was removed followed by washing (twice) with ice-cold Tris-buffered saline. After incubation in acid wash buffer (20 mM acetate buffer, pH 4.5) at 37 °C for 5 min (two times) and centrifugation, membrane bound activity was collected in plastic vials. Internalized radioligand fraction was collected after lysing cells by addition of 2 M NaOH. The internalized activity was expressed as percentage of total activity per milligram protein after spectrophotometric determination of protein (Bradford assay) in the NaOH fraction.

The nature of series [3]: Ex vivo biodistribution in mice bearing M21/M21-L xenografts. The conditions noted are these: mouse, in vivo, iv. Here is the method:
(§1) For the induction of tumor xenografts, female, athymic BALB/c nude mice (Charles River Laboratories) were injected subcutaneously with either 5 × 10^6 integrin αvβ3-positive M21 cells into the right hind limb and with 5 × 10^6 integrin αvβ3-negative M21-L cells (negative control) into the left hind limb of the same mouse. […] On the day of the experiment, [^68Ga]FSC(succ-RGD)3, [^68Ga]FSC(RGDfE)3, or [^68Ga]FSC(Mal-RGD)3 (∼0.5 MBq/mouse, ∼0.5 μg peptide, respectively) was intravenously injected in the lateral tail vein. Mice were euthanized by cervical dislocation at 1 and 2 h (only for [^68Ga]FSC(succ-RGD)3) after injection. Organs (spleen, pancreas, stomach, intestine, kidney, liver, heart, and lung), blood, muscle tissue, and tumors were dissected and weighed. Activity of the different samples was measured in the gamma counter. Results were expressed as percentage of injected dose per gram tissue (% ID/g).

Series [4] has as its system integrin αvβ3-positive (M21) and integrin αvβ3-negative (M21-L) human melanoma tumors. Described as above. Here is the method: as §1
Series [5] can be described thus: MicroPET/CT imaging in U87MG tumor-bearing mice. The conditions noted are these: mouse, uptake value in tumor (ROI analysis), U87MG xenograft, PET, 90 min p.i., retro-orbital. Here is the method: To investigate the capabilities of binding to the integrin αvβ3 receptors in the different tumor xenograft models and, at the same time, compare the imaging properties of [^68Ga]FSC(succ-RGD)3 and [^68Ga]NODAGA-RGD, two U87MG tumor-bearing mice were administered retro-orbitally (r.o.) under general anesthesia with [^68Ga]FSC(succ-RGD)3 and [^68Ga]NODAGA-RGD each other (∼6 MBq/mouse, ∼5 μg peptide) at continued days. For the induction of tumor xenografts, female, athymic BALB/c nude mice (AnLab, Prague, Czech Republic) were injected subcutaneously with 5 × 10^6 U87MG cells into the right flank. The tumors were allowed to grow until they had reached a volume of 0.5 to 0.8 cm^3. Imaging experiments were conducted on an Albira microPET/SPECT/CT imaging system (Bruker Biospin Corporation, Woodbridge, CT, USA). MicroPET/CT images were acquired under general anesthesia (isoflurane/O2) and heating at 37 °C. PET data for each mouse was recorded via either dynamic imaging for 90 min (5-min PET scan per frame) or static scans (a 5-min PET scan (axial FOV 148 mm) was performed, followed by a 25-min CT scan (axial FOV 65 mm, 45 kVp, 400 μA, at 600 projections)) at 90 min p.i. […] The uptake values (%ID/g) in kidneys, heart, and tumor were analyzed by drawing standardized volumes of interest.

Series [6] deals with integrin αvβ3-positive M21 tumor. Conditions: mouse, in vivo, iv.
Method: To compare the imaging properties of [^68Ga]FSC(succ-RGD)3, [^68Ga]FSC(RGDfE)3, and [^68Ga]FSC(Mal-RGD)3, microPET/CT imaging experiments were conducted on an Inveon microPET/CT scanner (Siemens Preclinical Solutions, Knoxville, USA). BALB/c nude mice bearing M21-positive tumor xenografts were administered with [^68Ga]FSC(succ-RGD)3 (or [^68Ga]FSC(RGDfE)3, [^68Ga]FSC(Mal-RGD)3, ∼5 MBq/mouse, ∼5 μg peptide) via intravenous (i.v.) injection. The body temperature of mice was maintained at 37 °C on the scanner bed and in the incubation chambers using heating pads. Dynamic 10-min duration PET scans were performed for 50 min while static PET scans (10 min) were performed at 1-h post-injection (p.i.), followed by a 25-min CT scan (spatial resolution, 113 μm; 80 kV, 500 mA). The mice remained under general anesthesia (isoflurane/O2) during the time between injection and imaging. […] Spherical isocontours were set at 50 % of the maximal pixel value to measure uptake values (Bq/ml) in kidneys, heart, and tumor.
Series [7] concerns integrin αvβ3-positive (M21) and integrin αvβ3-negative (M21-L) human melanoma tumors. Conditions: 1 h, cited from earlier work.
A further series has as its target T1, integrin αvβ3 (Homo sapiens, UniProt P05106+P06756).
T1 construct: purchased Millipore-Chemicon, Temecula, CA, USA
Briefly: Binding affinity for immobilized integrin αvβ3, displacement of [^125I]c(RGDyV). Conditions: isolated integrin αvβ3, radioligand [^125I]c(RGDyV), three independent measurements. Here is the method: In vitro binding affinities of cyclo(-Arg-Gly-Asp-DTyr-Val-) (c(RGDyV)) and the three FSC-RGD conjugates were determined by using isolated integrin αvβ3 (Millipore-Chemicon, Temecula, CA, USA) and I-125-labeled c(RGDyV) as radioligand. ([^125I]c(RGDyV) was produced as described in [18]). To integrin αvβ3, coated overnight at 4 °C onto 96-well plates (Nunc, Thermo Fisher Scientific, Vienna, Austria), [^125I]c(RGDyV) and the corresponding peptides in increasing concentrations from 0.001 to 100 nM were added. Plates were washed, and integrin bound activity was recovered with 2-M NaOH solution and counted in a gamma counter. OriginPro 8.5 software (Northampton, MA, USA) was used to calculate half maximal inhibitory concentration (IC50) values in three independent measurements.

Setting [8] is: M21 model, 1 h p.i., not statistically significant.

T1 sequence (P06756 31-889 limits assumed): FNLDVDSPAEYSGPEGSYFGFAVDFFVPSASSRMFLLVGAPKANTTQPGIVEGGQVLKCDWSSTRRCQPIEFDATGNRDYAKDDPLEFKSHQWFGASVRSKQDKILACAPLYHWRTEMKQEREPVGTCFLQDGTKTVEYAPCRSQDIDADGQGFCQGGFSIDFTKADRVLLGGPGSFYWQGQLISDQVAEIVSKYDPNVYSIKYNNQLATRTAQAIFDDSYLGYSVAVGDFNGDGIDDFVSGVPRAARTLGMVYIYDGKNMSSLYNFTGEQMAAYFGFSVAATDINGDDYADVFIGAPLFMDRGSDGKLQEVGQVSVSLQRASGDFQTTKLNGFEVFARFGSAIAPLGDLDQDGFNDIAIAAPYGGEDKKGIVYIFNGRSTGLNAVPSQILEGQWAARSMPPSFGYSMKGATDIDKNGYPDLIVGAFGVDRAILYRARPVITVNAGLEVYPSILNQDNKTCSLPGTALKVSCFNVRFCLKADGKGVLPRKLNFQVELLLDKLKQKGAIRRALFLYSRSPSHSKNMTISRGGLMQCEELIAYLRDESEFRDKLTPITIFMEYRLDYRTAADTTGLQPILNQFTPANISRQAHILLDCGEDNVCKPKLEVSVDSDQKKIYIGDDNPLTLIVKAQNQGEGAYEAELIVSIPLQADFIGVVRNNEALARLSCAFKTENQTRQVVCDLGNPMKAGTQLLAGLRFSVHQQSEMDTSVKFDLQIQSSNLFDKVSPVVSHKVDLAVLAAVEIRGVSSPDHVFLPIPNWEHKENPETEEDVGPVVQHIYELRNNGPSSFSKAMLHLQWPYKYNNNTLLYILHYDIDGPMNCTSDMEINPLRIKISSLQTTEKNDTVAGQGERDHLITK
T1 sequence (P06756 891-1048 limits assumed): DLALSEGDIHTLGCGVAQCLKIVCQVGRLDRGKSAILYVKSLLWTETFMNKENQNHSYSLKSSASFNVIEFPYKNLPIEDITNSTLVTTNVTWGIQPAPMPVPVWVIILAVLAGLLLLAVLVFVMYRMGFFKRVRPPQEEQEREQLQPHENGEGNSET
T1 sequence (P05106 27-788): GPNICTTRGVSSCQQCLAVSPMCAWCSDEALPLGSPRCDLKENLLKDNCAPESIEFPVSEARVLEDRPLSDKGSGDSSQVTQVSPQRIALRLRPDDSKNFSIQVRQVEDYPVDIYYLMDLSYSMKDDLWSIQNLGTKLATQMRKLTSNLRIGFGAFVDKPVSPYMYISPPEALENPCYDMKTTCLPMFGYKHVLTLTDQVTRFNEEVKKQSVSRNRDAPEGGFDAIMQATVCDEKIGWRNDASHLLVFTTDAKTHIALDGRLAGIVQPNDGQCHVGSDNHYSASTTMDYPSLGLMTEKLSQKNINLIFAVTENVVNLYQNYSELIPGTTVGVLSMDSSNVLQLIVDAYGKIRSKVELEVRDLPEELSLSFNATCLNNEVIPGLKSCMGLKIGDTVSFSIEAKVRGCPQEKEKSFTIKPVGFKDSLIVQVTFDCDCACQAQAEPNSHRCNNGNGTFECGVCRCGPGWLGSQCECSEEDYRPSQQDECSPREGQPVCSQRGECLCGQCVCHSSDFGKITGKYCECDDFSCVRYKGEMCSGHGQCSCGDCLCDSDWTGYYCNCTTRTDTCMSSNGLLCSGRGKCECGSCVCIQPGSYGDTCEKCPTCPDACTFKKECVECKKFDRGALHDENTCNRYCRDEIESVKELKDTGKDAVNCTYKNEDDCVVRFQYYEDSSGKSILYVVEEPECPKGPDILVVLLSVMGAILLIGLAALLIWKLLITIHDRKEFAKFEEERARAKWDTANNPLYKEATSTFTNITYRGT

By logD is commonly meant lipophilicity at a set pH, counting ionised and neutral species. By tissue uptake is commonly meant the share of the injected amount in each gram of the tissue. For `C/C1=C/C(=O)N(O)CCC[C@H](NC(=O)CC[C@@H]2NC(=O)[C@@H](Cc3ccccc3)NC(=O)[C@H](CC(=O)O)NC(=O)CNC(=O)[C@H](CCCNC(=N)N)NC2=O)C(=O)OCC/C(C)=C\C(=O)N(O)CCC[C@H](NC(=O)CC[C@@H]2NC(=O)[C@@H](Cc3ccccc3)NC(=O)[C@H](CC(=O)O)NC(=O)CNC(=O)[C@H](CCCNC(=N)N)NC2=O)C(=O)OCC/C(C)=C\C(=O)N(O)CCC[C@H](NC(=O)CC[C@@H]2NC(=O)[C@@H](Cc3ccccc3)NC(=O)[C@H](CC(=O)O)NC(=O)CNC(=O)[C@H](CCCNC(=N)N)NC2=O)C(=O)OCC1` [[^68Ga]FSC(RGDfE)3, metal not drawn], the pH-dependent lipophilicity (logD) in series [1] was -3.8 ± 0.2. For the same compound, the “internalized activity, % of total activity per milligram protein” value in series [2] came out at 5.3 ± 0.7 % cpm/mg. In addition, the tissue uptake at 1 h in series [3] (Blood uptake) turned out to be 0.4 ± 0.08 %ID/g; in series [3] (Heart uptake) it was 1.52 ± 0.13 %ID/g; in series [3] (Intestine uptake), 3.21 ± 0.48 %ID/g; in series [3] (Kidneys uptake) it was 11.5 ± 1.87 %ID/g; in series [3] (Liver uptake), 12.1 ± 1.34 %ID/g; in series [3] (Lung uptake), 2.48 ± 1.07 %ID/g. Also, the tissue uptake at 1 h was determined as 1.1 ± 0.3 %ID/g in series [3] (M21-L tumor uptake); 5.49 ± 0.94 %ID/g in series [3] (M21 tumor uptake); 0.94 ± 0.09 %ID/g in series [3] (Muscle uptake); 1.04 ± 0.12 %ID/g in series [3] (Pancreas uptake); 9.13 ± 0.27 %ID/g in series [3] (Spleen uptake); 4.76 ± 0.25 %ID/g in series [3] (Stomach uptake). The same compound had an M21-L tumor uptake in series [4] (mouse, in vivo, iv, 1 h) of 1.25 ± 0.06 % ID/g.
`C/C1=C/C(=O)N(O)CCC[C@H](NC(=O)CCC(=O)NCCCC[C@@H]2NC(=O)[C@@H](Cc3ccccc3)NC(=O)[C@H](CC(=O)O)NC(=O)CNC(=O)[C@H](CCCNC(=N)N)NC2=O)C(=O)OCC/C(C)=C\C(=O)N(O)CCC[C@H](NC(=O)CCC(=O)NCCCC[C@@H]2NC(=O)[C@@H](Cc3ccccc3)NC(=O)[C@H](CC(=O)O)NC(=O)CNC(=O)[C@H](CCCNC(=N)N)NC2=O)C(=O)OCC/C(C)=C\C(=O)N(O)CCC[C@H](NC(=O)CCC(=O)NCCCC[C@@H]2NC(=O)[C@@H](Cc3ccccc3)NC(=O)[C@H](CC(=O)O)NC(=O)CNC(=O)[C@H](CCCNC(=N)N)NC2=O)C(=O)OCC1` [[^68Ga]FSC(succ-RGD)3, metal not drawn] registered a pH-dependent lipophilicity (logD) in series [1] of -3.6 ± 0.1. The “internalized activity, % of total activity per milligram protein” value in series [2] came out at 5.7 ± 0.6 % cpm/mg. Besides, the tissue uptake at 1 h in series [3] (Heart uptake) worked out at 1.21 ± 0.28 %ID/g; in series [3] (Intestine uptake), 2.41 ± 0.8 %ID/g; in series [3] (Kidneys uptake), 8.12 ± 1.09 %ID/g; in series [3] (Liver uptake) it was 3.54 ± 0.63 %ID/g; in series [3] (Lung uptake) it was 2.42 ± 0.22 %ID/g; in series [3] (M21-L tumor uptake), 1.25 ± 0.06 %ID/g. Besides, the tissue uptake at 1 h in series [3] (M21 tumor uptake) came to 3.69 ± 0.94 %ID/g; in series [3] (Muscle uptake), 0.52 ± 0.19 %ID/g; in series [3] (Pancreas uptake), 0.61 ± 0.13 %ID/g; in series [3] (Stomach uptake) it was 2.02 ± 1.35 %ID/g. Further, the M21/kidneys ratio in series [4] (1 h p.i.) is 0.5 ± 0.1; in series [4] (2 h p.i.) it was 0.6 ± 0.1. In addition, the Blood uptake in series [4] (mouse, in vivo, iv, 1 h) is recorded as 0.63 ± 0.26 % ID/g. The same compound came in with an M21-L tumor uptake in series [4] (mouse, in vivo, iv, 1 h) of 1.10 ± 0.30 % ID/g. For the same compound, the Spleen uptake in series [4] (mouse, in vivo, iv, 1 h) was 3.27 ± 0.64 % ID/g. This compound also displayed a tissue uptake at […] in series [5] of 3.8 %ID/g. For the same compound, the “earliest visualization of the receptor-positive tumor in dynamic PET” value in series [6] is on record as 10 min p.i.
With `N=C(N)NCCC[C@@H]1NC(=O)[C@H](CCCCNC(=O)CCC(C(=O)O)N2CCN(CC(=O)O)CCN(CC(=O)O)CC2)NC(=O)[C@@H](Cc2ccccc2)NC(=O)[C@H](CC(=O)O)NC(=O)CNC1=O` (stereo partly drawn) [[^68Ga]NODAGA-RGD, metal not drawn], in series [4] (setting [8]), the “higher tumor to blood ratio versus [^68Ga]FSC(succ-RGD)3” value is given as 1.8 fold and the “higher tumor to kidney ratio versus [^68Ga]FSC(succ-RGD)3” value is 2 fold. In series [7] (same murine model, calculated based on the literature data ref 14), the M21/kidneys ratio is recorded as 1.0 ± 0.4. In addition, the M21 tumor uptake in series [7] (mouse, in vivo) was 1.3 %ID/g.
What is called IC50 is the concentration at which inhibition is half-maximal. High values mean a need for much substance, low ones inhibition by little substance. With `CC(C)[C@@H]1NC(=O)[C@@H](Cc2ccc(O)cc2)NC(=O)[C@H](CC(=O)O)NC(=O)CNC(=O)[C@H](CCCNC(=N)N)NC1=O` [c(RGDyV), cyclo(-Arg-Gly-Asp-DTyr-Val-)], at integrin αvβ3, the IC50 came to 6.2 ± 1.6 nM.
